Results published in PMC11245600, “Therapeutic potential of the secreted Kazal-type serine protease inhibitor SPINK4 in colitis” (Nature Communications, 2024).

Molecular target: T1, Fc-tagged extracellular section of EGFR (rEGFR) (human, UniProt P00533 25-645)
T1 construct: EGFR, extracellular section, human-derived; Bought protein; also called rEGFR (extracellular part); recombinant extracellular domain of EGFR; source: bought: Sino Biological
Assay: pull-down; 200 ng/mL rSPINK4-His and 1000 ng/mL Fc-tagged extracellular EGFR in 1 mL PBS with protease inhibitors, 4 °C overnight; anti-His or anti-EGFR magnetic beads, IgG control; Western blot
Settings: both partners purified

binding result: binds
B1: human-derived recombinant SPINK4 protein, His-tagged (rSPINK4-His) (natural protein, UniProt O60575 27-86, looked up)
chain: GKLPFSRMPICEHMVESPTCSQMSNLVCGTDGLTYTNECQLCLARIKTKQDIQIMKDGKC
notes: Bought recombinant protein
